How the values were obtained:
[1] = test system: Cc1cc(=O)oc2c(F)c(OP(=O)(O)O)c(F)cc12; experiment: purified protein, by the assay type
[2] = test system: O=[N+]([O-])c1ccc(OP(=O)(O)O)cc1; experiment: purified protein, by the assay type
[3] = other: DiFMUP, 0.5 nM enzyme, pH 7.5, 30 °C, mean of 3 ± SD
[4] = other: pNPP, 25 mM HEPES pH 7.5, 30 °C, mean of 3 ± SD

| Substance | Km ([1]; pH 7.5, 30.0 °C) | Km ([2]; pH 7.5, 30.0 °C) | Km [1, 3] | kcat [1, 3] | kcat/Km [1, 3] | Km [2, 4] | kcat [2, 4] | kcat/Km [2, 4] |
| --- | --- | --- | --- | --- | --- | --- | --- | --- |
| MoCdc14 (Pyricularia oryzae 70-15) | 0.044 ± 0.011 mM | 25 ± 1 mM | – | – | – | – | – | – |
| CgCdc14 (Colletotrichum gloeosporioides) | – | – | 0.078 ± 0.012 mM | 7 s⁻¹ | 86000 ± 6100 M⁻¹ s⁻¹ | 30 ± 4 mM | 0.6 ± 0.1 s⁻¹ | 20 ± 2 M⁻¹ s⁻¹ |

Reference: paper PMC7374715, “Conservation of Cdc14 phosphatase specificity in plant fungal pathogens: implications for antifungal development” (Scientific Reports, 2020)
